A word on the Kd: it is the equilibrium constant for the complex coming apart. Read a low Kd as a tighter complex.

Assay [1] deals with RSV postfusion F (postF, F deltaFP) (Respiratory syncytial virus). The assay can be described thus: BLI, IgG on sensor, 100 nM antigen. (In BLI a coated tip is dipped into the sample, and binding shifts an interference pattern.)
Assay [2] has as its target RSV prefusion F (preF, DS-Cav1) (Respiratory syncytial virus). The assay is described as follows: BLI, IgG on sensor, 100 nM antigen.
The target in assay [3] is Respiratory Syncytial Virus fusion glycoprotein (RSV F) on RSV-A2 virus (Respiratory Syncytial Virus subtype A (RSV-A2)). The assay can be described thus: cell-based or functional assay.
The target of assay [4] is RSV prefusion F (preF), DS-Cav1 (Respiratory Syncytial Virus). The assay can be described thus: BLI, IgG on anti-human IgG sensor, 100 nM antigen.

B1: ADI-41244 (antibody, V domains shown)
VH: QVTLKESGGGLIQPGGSLRLSCAVSGFTVSSKYMSWVRQAPGKGLEWVSVIYGGGSTYYTDSVKGRFTISRDNSNNTLYLQMNSLRAEDTAIYYCAREARSYNYDYVGNDAFDIWGQGTTVTVSS
VL: DIVLTQTPDSLAVSLGERATINCKSSQSVLNNFNNKNYLAWYQQKPGQPPKLLIYWASTRESGVPDRFSGSGSGTDFTLTITSLQAEDVAIYYCQQYYRTPPYTFGQGTKVDIK
B1 gave a Kd in assay [1] of 0.843 nM.

B2: ADI-41265 (antibody, V domains shown)
VH: EVQLVQSGAEVKKPGESLTISCKDSGYSFTSYWIGWVRQVPGKGLEWMGIVYPGDSRYSPSFQGHVTMSADKSINTAYLQWSTLKASDTAMYYCAKVVTYGSAIRWFESWGQGTLVTVSS
VL: QSVLTQPPSVSAAPGQKVSISCSGSSSNIGNNFVSWYQQVPGTAPKLLIIDNNKRPSGIPDRFSGSKSGTSATLGITGLQTGDEADYYCGTWDSRLSAEVFGGGTKLTVL
With B2, the Kd stood at 3.08 nM in assay [1] and 15 nM in assay [2].

B3: ADI-41248 (antibody, V domains shown)
VH: QVQLVQSGGGVVQPGRSLRLSCAASGFTFSSYSMHWVRQAPGKGLEWMAVCWYDGSNIYYADSVKGRFTISRDNSKNTVYLQMNSLRAEDTAVYYCARDDRYCSGGTCLSAFDIWGQGTMVTVSS
VL: ETTLTQSPSSLSASVGDRVTITCRASQSISSYLNWYQQKPGRAPKLLIYTTSSLQSGVSSRFSGSGSGTDFTLTINSLQPEDFATYYCQQSYSTPNTFGQGTKVEIK
On to B3, for which the Kd turned out to be 0.392 nM in assay [1] and 3.35 nM in assay [2].

B4: ADI-41235 (antibody, V domains shown)
VH: QVQLQQWGAGLLKPSETLSLTCGVYGESFSGHYWSWIRQPPGKGLEWMGEIHHSGTTNYNPSLKSRVTISVDTSKNQFSLKLNSVTAADTAVYYCARNPAEDILTGYSPPFHYYYMDVWGKGTTVTVSS
VL: QSVLTQPPSVSGAPGQRVTISCTGSSSNIGAGYDVHWYQQIPGTAPKLLIHSNNNRPSGVPDRFSGSKSGTSASLAITGLQAEDEADYYCQSYDSSLSVVFGGGTKLTVL
Take B4: the values for the Kd in assay [1] and in assay [2] were 3.24 nM and 4.72 nM, respectively.

B5: ADI-41270 (antibody, V domains shown)
VH: EVQLVESGGGVVQPGQSLRLSCAASGFTFSSFAMHWVRQAPGKGLEWVAVISYDGSNKYYADSVKGRFTISRDNSKNTLSLQVNSLRAEDTAVYYCARVSAEGSMGRFSDFNYWGLGTLVTVSS
VL: QSALTQPASVSGSPGQSITISCTGTSSDVGSYNLVSWYQQHPGKAPKLMIYEVRKRPSGVSNRFSGSKSGNTASLTISGLQAEDEADYYCCSYAGSDTYVFGTGTKLTVL
With B5, the Kd in assay [1] stood at 0.617 nM; in assay [2], 4.92 nM.

B6: ADI-41264 (antibody, V domains shown)
VH: EVQLVESGGGLVKPGGSLRLSCAASGFTFSNTWMSWVRQAPGKGLEWVGHIKSKTDGGTTDYAAPVKGRFTISRDDSKSILNLHLNSLKTEDSAVYYCAALPPISGWYYTPGFWGQGTLVTVSS
VL: SYELTQPPSMSVSPGQTARITCFGDAVPKKYVYWYQQKSGQAPVMVIYDDRRRPSGIPERFSGSSSGARATLTISGAQVEDEADYYCYSTDGSGNPSFGGGTKLTVL
Take B6: in assay [1], the Kd was 0.484 nM. In other words, the sub-nanomolar range.

B7: ADI-41289 (antibody, V domains shown)
VH: EVQLVQSGAEVKKPGESLKISCKGSGYSFSSFWIGWVRQMPGKGLEWMGIIYPGDSDTRYSPSFQGQVTISADQSIRTAYLQWNSLKASDTGLYYCAKGGLGDVEMATIAVWGQGTLVTVSS
VL: QSVLIQPASVSGSPGQSITIPCTGTSSDVGSYNLVSWYQHHPGKAPKLIISEGSKRPLGVSNRFSGSKSGNTASLTISGLQAEDEADYYCSSYVRSRTFNYVFGTGTKLTVL
As for B7, the Kd in assay [1] worked out at 0.881 nM.

B8: ADI-41236 (antibody, V domains shown)
VH: QVQLVQSGGGLVKPGGSLRLSCTASGFTFSDYYMDWIRQAPGKGLEWVSSISSSSTYTKYADSVKGRFTISRDNAKNSLFLQMNSLRAEDTAVYYCVRNLGPYCSSTSCFVFDYWGQGTLVTVSS
VL: QSVLTQPPSVSGAPGQRVSISCTGSSSNIGAGYEVHWYKQVPGTAPRLLMYDNTNRPSGVPDRVSGSKSGTSASLAITGLQAEDEADYYCQSYDNSLNKSVFGGGTKVTVL
The molecule B8 returned a Kd in assay [1] of 61.3 nM. This Kd lies about 70-fold higher than the previous one.

B9: ADI-41243 (antibody, V domains shown)
VH: QVQLVQSRAEVKKPGESLKISCKGSLHSFSNNWIGWVRQMPGKGLEWMGIIFPDDSDTRYSPSFQGQVTISADKSISTAYLQWSSLKASDTAIYYCGTVVTLIQGVADWGQGTLVTVSS
VL: QPVLTQPHSVSESPGKTVTISCTRSSGSIDSSYVQWYQQRPGSSPTTVIYEDNLRPSGVPDRFSGSIDSSSNSASLTISGLKTEDEAEYYCQSYDSSNPVVFGGGTKLTVL
As to B9, the values for the Kd in assay [1] and in assay [2] were 0.418 nM and 3.55 nM, respectively.

B10: ADI-41227 (antibody, V domains shown)
VH: RSSWCSVGAEVKKRGSSVKVSCKASGGTFGGYAVSWVRQAPGQGLEWMGGIIPMFYTTKYAQKLQGRVTITADESTNTAYMDLSSLTSDDTAIYFCAREWHLGRTAVTGTGAFLDAFDIWGQGTMVTVSS
VL: SYELTQPPSVSEAPRQRVTISCSGSSSNIGNNAVNWYQQLPGKAPKLLIYYDDLLPSGVSDRFSGSKSGTSASLAISGLQSEDEADYYCSAWDDSLNGWVFGGGTKLTVL
In assay [3], B10 returned a Neutralization IC50 (RSV subtype A) greater than 25 µg/mL. Also, the Kd in assay [4] came to 4.62 nM.

B11: ADI-41252 (antibody, V domains shown)
VH: EVQLVQSGAEVKKPGESLKISCMGSGYNFPNYWIGWVRQMSGKGLEWMGIIYPDDSDTTYSPSFQGQVIFSADKSISTAYLQWSSLKASDTAMYFCVRLDKTTQIDFWGQGTLVTVSS
VL: EIVLTQSPSSLSASVGDRVTITCQASQDISNYLNWYQQKPGKAPKLLIYDVSNLETGVPSRFSGSGSGTDFTFTISSLQPEDIATYYCQQHDNLPLTFGQGTRLEIK
Take B11: the Kd in assay [1] is 1 nM; in assay [2], 1.37 nM.

B12: ADI-41234 (antibody, V domains shown)
VH: QVQLVQSGGGVVQPGRSLRLSCAASGFTVSSYAIHWVRQSAGKGLEWVAVEGRFTISRDNSKNTLYLQMNSLRAEDTAVYYCARLSEALVEPAAHTQYKYHYGLDVWGQGTTVTVSS
VL: EIVLTQSPLSLPVTPGEPASISCKSSQSLLDSNGYNYLDWYLQKPGQSPQLLIYLVSNRASGVPDRFSGSGSGTDFTLKISRVEAEDVGIYYCMQALQTPWTFGQGTKVEIK
As to B12, in assay [3], the Neutralization IC50 (RSV subtype A) is 0.1 µg/mL. The molecule further came in with a Kd in assay [4] of 1.46 nM.

B13: ADI-41250 (antibody, V domains shown)
VH: QVQLQQWGAGLLKPSETLSLTCAVSGESLTGYFWSWIRQPPGKGLEWIGEVSHSGSTNYNPSLKSRVTMSVDTSKTQFSLKLNSVTAADTAVYYCARGYDYWSGTARYFDYWGQGILVTVSS
VL: QPVLTQPASVSGSPGQSITISCTGTSSDVGGYNYVSWYQQHPGKAPKLMIYDVSNRPSGVSSRFSGSKSGNTASLTISGLQAEDEGDYYCSSYRSSTTSRVFGGGTKVTVL
Turning to B13, the values for the Kd in assay [1] and in assay [2] were 0.504 nM and 0.731 nM, respectively.

B14: ADI-41267 (antibody, V domains shown)
VH: QVQLVQSGPGLVKPSGTLSLTCAVSGGSISTTHWWSWVRQPPGKGLEWIGEIYHSGSTNYNPSLKSRVTISVDKSRSQFSLKLTSVTAADTAVYYCARGDPLCSGGICYSGYFDYWGQGTLVTVSS
VL: SYVLTQPPSVSVSPGQTATITCSGDKLGDQYACWYQQKSGQSPVLVIYRDNKRPSGIPERFSGSNSGNTATLTISETQAMDEADYYCQAWGSSSVVFGGGTKVTVL
For B14, the Kd is 10.9 nM in assay [1] and 10.7 nM in assay [2].

B15: ADI-41240 (antibody, V domains shown)
VH: QVQLQQWGAGLLKPSETLSLICDVYGGSFSDYYWSWIRQSPGKGLEWIGEINHSGSTSFHPSLKSRISISIDTSNNQFSLNLSSMTAADTAVYYCARGTLRGYFDYWGQGTLVTVSS
VL: EIVLTQSPSTLSAFVGDRVTITCRASQSISRWLAWYQQKPGKAPNLLISEASSLESGVPSRFSGSGSGTEFTLTISSLQPDDLGTYYCQQYNGYLWTFGQGTKVEIK
For B15, the Kd amounted to 1.2 nM in assay [1] and 2.15 nM in assay [2].

B16: ADI-41241 (antibody, V domains shown)
VH: QVQLVQSGAEVKKPGASVQVSCKASGYTFTGDYMHWVRQAPGQGLEWMGRINPNSGGTNYAQKFQGRVTMTRDTSISTAYMELSRLRSDDTAVYYCARAAAEYSSSSPTSYYYMDVWGKGTTVTVSS
VL: EIQMTQSPSSLSASVGDRVTITCRASQNIYSFLNWYQQKPGKAPKLLIYAASSLQSGVPSRFSGSGSATDFTLTISSLQPEDFATYYCQQSYSPPQITFGQGTKVDIK
Regarding B16, the Kd amounted to 0.927 nM in assay [1] and 3.84 nM in assay [2].

B17: ADI-41233 (antibody, V domains shown)
VH: EVQLLESGGGLVKPGGSLRLSCAASGFIFRDYYMIWIRQAPGKGLEWVSYISSSSTYTNNADSVKGRFTISRDNAKNSLYLQMNSLRAEDTAVYYCARLFASRSDGAFDIWGQGTTVTVSS
VL: QSVLTQPPSVSGAPGQRVTISCTGSSSNIGAGYDVHWYQQLPETAPKLLIYDNNNRPSGVPDRFSGSKSGTSASLAITGLQAEDEADYYCQSYDSSLSGYVFGTGTTVTVL
On to B17, for which the Neutralization IC50 (RSV subtype A) in assay [3] was found to be 0.15 µg/mL. Besides, the Kd in assay [4] was 1.06 nM.

B18: ADI-41247 (antibody, V domains shown)
VH: QVQLVQSGAEVKKPGASLQVSCKASGYTFTDSYFHWVRQAPGQGLEWMGRISPHSGGTNYAQKFQGRVTMTRDTSISTAYLELSRLRSDDTAVYYCATEGPRGPFRFDPWGQGTLVTVSS
VL: NFMLTQPHSVSESPGKTVTISCTRSSGSIASNYVQWYQQRPGSSPTTVIYEDNQRPSGVPDRFSGSIDSSSNSASLTISGLMTEDEADYYCQSYDSSNWVFGGGTKLTVL
Regarding B18, the Kd was 1.02 nM in assay [1] and 2.76 nM in assay [2].

B19: ADI-41263 (antibody, V domains shown)
VH: QVQLVQSGAEVKKPGASVKVYCKASGYTFTSHYIHWVRQAPGQGLEWMGRMNPSGGSPMYAQKFQERVTMTRDTSTSTAYMELRSLRSEDTAVYYCAMAKFYSFDYWGQGTLVTVSS
VL: QSVLTQPHSVSESPGKTVTISCTRSSGSIASYFVHWYQQRPGSAPTIVIYEDNQRPSGVPDRFSGSIDSSSNSASLTISGLKTEDEADYYCQSYDSSNWVFGGGTKLTVL
With B19, the figures for the Kd in assay [1] and in assay [2] were 0.345 nM and 2.9 nM, respectively.

The record behind these values is patent US20260258115A1.
